Results from the supplement of paper PMC9732359.
± gives the uncertainty stated by the source.

Assay: protein stability index of a GFP-peptide fusion (yeast GPS) (PSI 1-4); higher = more stable; sorted into four equal gates, so the index is relative within each strain
How it was run: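 For each peptide, the protein stability index sums the read frequency in every gate after multiplying it by the gate number. Read frequencies came from plasmids that were PCR-amplified from each gate and Illumina-sequenced, with reads assigned to strains by barcodes. The gates were four equal bins of GFP/Cherry fluorescence ratio applied to mid-log yeast in leucine-free medium carrying a pooled library of tiled 17-residue yeast protein peptides fused downstream of GFP on a Cherry-expressing plasmid.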

Sequence: YIHLAYSRSVDKEWVFA [SSN2]
- protein stability index (doa10∆): 1.81 ± 0.079
- protein stability index (pdr5∆): 1.5 ± 0.057
- protein stability index (san1∆): 1.84 ± 0.091
- protein stability index (ubr1∆): 1.72 ± 0.038

Sequence: SELDSNDFFIIYYTPAF [YJL039C/NUP192]
- protein stability index (doa10∆): 1.39 ± 0.065
- protein stability index (pdr5∆): 1.51 ± 0.041
- protein stability index (san1∆): 1.63 ± 0.075
- protein stability index (ubr1∆): 1.55 ± 0.044

Sequence: ILDNTENYDDTELRQLF [DSN1]
- protein stability index (doa10∆): 3.15 ± 0.066
- protein stability index (pdr5∆): 3.28 ± 0.068
- protein stability index (san1∆): 3.37 ± 0.042
- protein stability index (ubr1∆): 3.29 ± 0.05

Sequence: DIKAAVDDSMELCGQIR [ITC1]
- protein stability index (doa10∆): 2.65 ± 0.092
- protein stability index (pdr5∆): 2.82 ± 0.12
- protein stability index (san1∆): 2.21 ± 0.17
- protein stability index (ubr1∆): 2.9 ± 0.14

Sequence: VLKFLTDLEKKHLWDQK [RPC17]
- protein stability index (doa10∆): 3.14 ± 0.24
- protein stability index (pdr5∆): 3.41 ± 0.16
- protein stability index (san1∆): 3.18 ± 0.14
- protein stability index (ubr1∆): 3.47 ± 0.14

Sequence: PAFSFNSSVGNKTDAQA [YJL041W/NSP1]
- protein stability index (doa10∆): 2.82 ± 0.14
- protein stability index (pdr5∆): 3.47 ± 0.11
- protein stability index (san1∆): 2.85 ± 0.1
- protein stability index (ubr1∆): 3.16 ± 0.085

Sequence: SSTQDVILRKISMLVTQ [CSI1]
- protein stability index (doa10∆): 1.62 ± 0.054
- protein stability index (pdr5∆): 1.75 ± 0.054
- protein stability index (san1∆): 1.91 ± 0.085
- protein stability index (ubr1∆): 1.77 ± 0.041

Sequence: PLLARKQFVVDVLHPNR [RPS24A]
- protein stability index (doa10∆): 1.58 ± 0.14
- protein stability index (pdr5∆): 1.83 ± 0.072
- protein stability index (san1∆): 1.72 ± 0.12
- protein stability index (ubr1∆): 1.62 ± 0.071

Sequence: NEDENIQLIKILNSHFD [YJL041W/NSP1]
- protein stability index (doa10∆): 2.77 ± 0.052
- protein stability index (pdr5∆): 2.98 ± 0.056
- protein stability index (san1∆): 3.142 ± 0.03
- protein stability index (ubr1∆): 2.85 ± 0.037

Sequence: VLITDHIEKLENEFVVL [CDC53]
- protein stability index (doa10∆): 3.05 ± 0.061
- protein stability index (pdr5∆): 2.61 ± 0.055
- protein stability index (san1∆): 2.1 ± 0.087
- protein stability index (ubr1∆): 2.58 ± 0.054

Sequence: LQYTALTGSPNNPLVQK [ARP7]
- protein stability index (doa10∆): 2.66 ± 0.07
- protein stability index (pdr5∆): 2.7 ± 0.064
- protein stability index (san1∆): 2.34 ± 0.078
- protein stability index (ubr1∆): 2.95 ± 0.045

Sequence: IIVPDLIELKSDLLVAP [YML103C/NUP188]
- protein stability index (doa10∆): 1.65 ± 0.052
- protein stability index (pdr5∆): 1.8 ± 0.056
- protein stability index (san1∆): 1.95 ± 0.094
- protein stability index (ubr1∆): 1.69 ± 0.059

Sequence: KVDWAREHFEKTVAVDS [RPL3]
- protein stability index (doa10∆): 1.8 ± 0.18
- protein stability index (san1∆): 1.54 ± 0.15
- protein stability index (ubr1∆): 1.9 ± 0.15

Sequence: TCAGGRLFNVVVQDSQT [SMC2]
- protein stability index (doa10∆): 2.84 ± 0.11
- protein stability index (pdr5∆): 3.18 ± 0.11
- protein stability index (san1∆): 2.39 ± 0.12
- protein stability index (ubr1∆): 2.76 ± 0.082

Sequence: PPAYALLGSCQTDGMGL [RPC25]
- protein stability index (doa10∆): 2.15 ± 0.11
- protein stability index (pdr5∆): 2.57 ± 0.15
- protein stability index (san1∆): 2.22 ± 0.19
- protein stability index (ubr1∆): 2.41 ± 0.13

Sequence: SGYNQEDSMIMNQSSID [RPB2]
- protein stability index (doa10∆): 2.46 ± 0.11
- protein stability index (pdr5∆): 2.67 ± 0.12
- protein stability index (ubr1∆): 2.84 ± 0.067

Sequence: MLSFCPSCNNMLLITSG [RPC11]
- protein stability index (doa10∆): 1.26 ± 0.082
- protein stability index (pdr5∆): 2.97 ± 0.13
- protein stability index (ubr1∆): 2.83 ± 0.072

Sequence: NMKVTILHGSKSQEQRE [PRP28]
- protein stability index (doa10∆): 3.42 ± 0.093
- protein stability index (pdr5∆): 3.31 ± 0.15
- protein stability index (san1∆): 3.25 ± 0.046
- protein stability index (ubr1∆): 3.35 ± 0.06

Sequence: QIPLHRAASVGSLKLIE [NAS6]
- protein stability index (doa10∆): 2.04 ± 0.078
- protein stability index (pdr5∆): 2.16 ± 0.084
- protein stability index (san1∆): 2.23 ± 0.14
- protein stability index (ubr1∆): 1.83 ± 0.1

Sequence: IIASASYDKTVKLWEED [YGL100W/SEH1]
- protein stability index (doa10∆): 3.3 ± 0.18
- protein stability index (pdr5∆): 3.67 ± 0.25
- protein stability index (san1∆): 3.22 ± 0.093
- protein stability index (ubr1∆): 3.41 ± 0.12

Sequence: ELGEIIDEDIGNNVQEN [RMP1]
- protein stability index (san1∆): 3.02 ± 0.26

Sequence: MPRLEEIDDFNDIDDLD [SEC65]
- protein stability index (doa10∆): 2.71 ± 0.1
- protein stability index (pdr5∆): 3.09 ± 0.1
- protein stability index (san1∆): 2.9 ± 0.088
- protein stability index (ubr1∆): 3.23 ± 0.12

Sequence: IRKFFGLSKEDDVRDFV [RPS6A]
- protein stability index (doa10∆): 3.43 ± 0.1
- protein stability index (pdr5∆): 3.35 ± 0.098
- protein stability index (san1∆): 3.38 ± 0.12
- protein stability index (ubr1∆): 3.32 ± 0.098

Sequence: TGSNDRCIGDSDNVSFE [YMR129W/POM152]
- protein stability index (doa10∆): 3.19 ± 0.066
- protein stability index (pdr5∆): 2.73 ± 0.068
- protein stability index (san1∆): 2.5 ± 0.077
- protein stability index (ubr1∆): 3.09 ± 0.048

Sequence: PKNQQYRAFGSIWQVKD [MED7]
- protein stability index (doa10∆): 2.45 ± 0.084
- protein stability index (pdr5∆): 2.7 ± 0.082
- protein stability index (san1∆): 2.54 ± 0.08
- protein stability index (ubr1∆): 2.64 ± 0.063

Sequence: LGVTYSSPTLATGFGAH [PRE4]
- protein stability index (doa10∆): 2.41 ± 0.078
- protein stability index (pdr5∆): 2.29 ± 0.12
- protein stability index (san1∆): 2.48 ± 0.087
- protein stability index (ubr1∆): 1.62 ± 0.12

Sequence: AFDIELSEFGIKKMLHL [YCS4]
- protein stability index (doa10∆): 3.11 ± 0.067
- protein stability index (pdr5∆): 3.09 ± 0.088
- protein stability index (san1∆): 2.67 ± 0.1
- protein stability index (ubr1∆): 3.12 ± 0.063

Sequence: LANLIRDALRNIKNTNE [RRP6]
- protein stability index (doa10∆): 2.37 ± 0.045
- protein stability index (pdr5∆): 2.51 ± 0.055
- protein stability index (san1∆): 2.63 ± 0.055
- protein stability index (ubr1∆): 2.49 ± 0.036

Sequence: ASLDGTIRLWECGTGTT [RPN14]
- protein stability index (doa10∆): 2.8 ± 0.093
- protein stability index (pdr5∆): 2.91 ± 0.13
- protein stability index (san1∆): 3.19 ± 0.069
- protein stability index (ubr1∆): 2.78 ± 0.12

Sequence: NTEEKAELQSNLQVELL [YGL100W/SEH1]
- protein stability index (doa10∆): 3.06 ± 0.064
- protein stability index (pdr5∆): 3.02 ± 0.087
- protein stability index (san1∆): 1.96 ± 0.13
- protein stability index (ubr1∆): 2.74 ± 0.083

Sequence: AHTPMLQMYSKIRRHPN [FAS1]
- protein stability index (doa10∆): 2.81 ± 0.051
- protein stability index (pdr5∆): 3.03 ± 0.063
- protein stability index (san1∆): 2.96 ± 0.06
- protein stability index (ubr1∆): 2.95 ± 0.048

Sequence: FLESSKEIDPSQTTQLA [FAS2]
- protein stability index (doa10∆): 2.89 ± 0.11
- protein stability index (pdr5∆): 3 ± 0.085
- protein stability index (san1∆): 2.6 ± 0.084
- protein stability index (ubr1∆): 2.42 ± 0.14

Sequence: NTFNYDVKISNDFFDNG [RPN4]
- protein stability index (doa10∆): 1.94 ± 0.08
- protein stability index (pdr5∆): 2.3 ± 0.07
- protein stability index (san1∆): 2.52 ± 0.091
- protein stability index (ubr1∆): 2.48 ± 0.072

Sequence: SGRTVISPDPNLSIDEV [RPO31]
- protein stability index (doa10∆): 2.4 ± 0.063
- protein stability index (pdr5∆): 1.97 ± 0.06
- protein stability index (san1∆): 2.03 ± 0.099
- protein stability index (ubr1∆): 1.92 ± 0.057

Sequence: ILSKKWGFTNLDRPEYL [RPL10]
- protein stability index (ubr1∆): 2.89 ± 0.26

Sequence: SVVSMSNDVLKPETPKG [SIR2]
- protein stability index (doa10∆): 3.01 ± 0.073
- protein stability index (pdr5∆): 3.51 ± 0.11
- protein stability index (san1∆): 3.25 ± 0.062
- protein stability index (ubr1∆): 2.96 ± 0.052

Sequence: DSVILASSKAVTRGISV [PRE1]
- protein stability index (doa10∆): 2.14 ± 0.045
- protein stability index (pdr5∆): 2.42 ± 0.048
- protein stability index (san1∆): 2.28 ± 0.056
- protein stability index (ubr1∆): 2.34 ± 0.041

Sequence: TTARAKARAKKTKKEKG [RPN2]
- protein stability index (doa10∆): 3.31 ± 0.15
- protein stability index (pdr5∆): 3.63 ± 0.2
- protein stability index (san1∆): 3.16 ± 0.079
- protein stability index (ubr1∆): 3.21 ± 0.089

Sequence: WKLLNQLVLRGLLSQAI [YJR042W/NUP85]
- protein stability index (doa10∆): 2.01 ± 0.18
- protein stability index (pdr5∆): 1.3 ± 0.076
- protein stability index (san1∆): 1.28 ± 0.11
- protein stability index (ubr1∆): 1.17 ± 0.1

Sequence: NTGLLNKANIQALIHGL [RPN11]
- protein stability index (doa10∆): 3.02 ± 0.14
- protein stability index (pdr5∆): 2.88 ± 0.15
- protein stability index (san1∆): 2.09 ± 0.28
- protein stability index (ubr1∆): 2.67 ± 0.16
